These results are taken from PMC10311840, “Purification and characterization of inorganic pyrophosphatase for in vitro RNA transcription” (Biochemistry and cell biology = Biochimie et biologie …, 2022).

Data set [1] concerns the molecule itself. Kind of data set: SEC-MALS; SEC-MALS-DLS; Superdex 200 Increase 10/300 GL; 355 umol/L affinity-purified iPPase injected in 500 uL; 25 C; 80 mmol/L Tris-HCl pH 7.5, 30 mmol/L MgCl2, 4 mmol/L spermidine, 20 mmol/L NaCl, 4 mmol/L DTT; self-association, dimer, tetramer and hexamer peaks. In general terms: Size exclusion chromatography separates by hydrodynamic size, large species first.

Data set [2] deals with the molecule itself. Kind of data set: SEC-SAXS; HPLC-SAXS at Diamond B21; 50 uL of 450 umol/L iPPase on Superdex 200 Increase 3.2/300 GL; dimer and tetramer peaks analysed, hexamer peak not usable; self-association.

Where “and” joins values, the source holds several entries; their conditions need not be identical. Equal entries are not always repeated.

B1: yeast inorganic pyrophosphatase (enzyme)
chain: TYTTRQIGAKNTLEYKVYIEKDGKPVSAFHDIPLYADKENNIFNMVVEIPRWTNAKLEITKEETLNPIIQDTKKGKLRFVRNCFPHHGYIHNYGAFPQTWEDPNVSHPETKAVGDNDPIDVLEIGETIAYTGQVKQVKALGIMALLDEGETDWKVIAIDINDPLAPKLNDIEDVEKYFPGLLRATNEWFRIYKIPDGKPENQFAFSGEAKNKKYALDIIKETHDSWKQLIAGKSSDSKGIDLTNVTLPDTPTYSKAASDAIPPASPKADAPIDKSIDKWFFISGSV
notes: inorganic pyrophosphatase, product of the yeast gene IPP1, family 1 iPPase (EC 3.6.1.1); expressed from plasmid pET29b-IPP1-His; no cleavage is described; also called iPPase; yeast iPPase
Broadly, the stoichiometry N is a count of units in the complex or per binding partner. Take B1: the “stoichiometry N” value in data set [1] is 2 and 6; in data set [2], 4.
